Ends that are not written are not given here.
Experiments:
SR-B1 = target: T1, SR-B1 (Rattus norvegicus, UniProt P97943); experiment: SR-BI mediated cholesterol efflux; assay type: cell-based; conditions: for SR-BI Mediated Efflux % Per 4 h: minus blank; for cholesterol efflux from the Fu5AH cells (SRB1 pathway): result in words
T1 construct: endogenous in cells; host or cells: Fu5AH rat hepatoma cells
T1 sequence (P97943 1-509): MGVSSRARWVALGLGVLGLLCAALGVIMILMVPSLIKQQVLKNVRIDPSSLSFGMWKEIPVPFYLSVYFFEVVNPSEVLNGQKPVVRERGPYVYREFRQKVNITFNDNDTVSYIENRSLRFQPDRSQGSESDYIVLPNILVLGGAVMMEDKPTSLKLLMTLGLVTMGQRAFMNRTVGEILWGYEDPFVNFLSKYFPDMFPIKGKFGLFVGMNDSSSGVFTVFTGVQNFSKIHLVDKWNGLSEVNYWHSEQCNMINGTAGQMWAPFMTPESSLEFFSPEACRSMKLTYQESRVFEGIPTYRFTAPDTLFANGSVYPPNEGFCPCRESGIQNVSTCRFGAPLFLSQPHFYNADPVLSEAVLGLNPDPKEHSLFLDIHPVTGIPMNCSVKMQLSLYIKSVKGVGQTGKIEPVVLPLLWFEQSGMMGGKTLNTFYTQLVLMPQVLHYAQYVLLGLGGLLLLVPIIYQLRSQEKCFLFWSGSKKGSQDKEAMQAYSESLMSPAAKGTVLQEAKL
Source text: (§1) The methods employed in this study have been described in U.S. Pat. Nos. 7,029,863, 7,060,452, U.S. Patent Application Publication No. 2005/0191715, and in Moya et al., Arteriosclerosis & Thrombosis 1994:14:1056-1065 and Liu et al., J. Biol. Chem., 2003:278(44), 42976-42984. SR-B1 mediated cholesterol efflux was examined in FU5AH rat hepatoma cells and ABCA1 mediated cholesterol efflux was examined in J774 mouse macrophage cells as described in these references.
(§2) J774 macrophages and Fu5AH […] in culture were used to determine the specificity of SEQ ID NO: 602 to efflux cholesterol by the ABCA-I or SRBI pathways using the methods of de la Llera Moya, M., V., et al. “A cell culture system for screening human serum for ability to promote cellular cholesterol efflux. Relations between serum components and efflux, esterification, and transfer.” Arterioscler. Thromb. 14: 1056-1065 (1994). Anti-inflammatory properties were evaluated by determination of inhibition of expression of activated CD11B human monocytes and suppression of cytokine-induced vascular cell adhesion molecule-1, V-CAM, expression in human coronary artery endothelial cells (HCAECs).

ABCA1 = target: T2, ABCA1 (Mus musculus, UniProt P41233); experiment: ABCA1 mediated cholesterol efflux; assay type: cell-based; parameters: +ABCA1 Cells / −ABCA1 Cells: unit not given here; conditions: for cholesterol efflux via the ABCA-I pathway: Example 17, J774 macrophages; for +ABCA1 Cells / −ABCA1 Cells / ABCA1 Mediated Efflux % Per 4 h: minus blank; for dose dependence of cholesterol efflux from cells containing the ABCA1 pathway (FIG. 3): range of 5 ug/ml to 30 ug/ml; for efflux of cholesterol from J774 macrophage cells (ABCA1 pathway): result in words
T2 construct: endogenous in cells; host or cells: J774 mouse macrophage cells
T2 sequence (P41233 whole entry): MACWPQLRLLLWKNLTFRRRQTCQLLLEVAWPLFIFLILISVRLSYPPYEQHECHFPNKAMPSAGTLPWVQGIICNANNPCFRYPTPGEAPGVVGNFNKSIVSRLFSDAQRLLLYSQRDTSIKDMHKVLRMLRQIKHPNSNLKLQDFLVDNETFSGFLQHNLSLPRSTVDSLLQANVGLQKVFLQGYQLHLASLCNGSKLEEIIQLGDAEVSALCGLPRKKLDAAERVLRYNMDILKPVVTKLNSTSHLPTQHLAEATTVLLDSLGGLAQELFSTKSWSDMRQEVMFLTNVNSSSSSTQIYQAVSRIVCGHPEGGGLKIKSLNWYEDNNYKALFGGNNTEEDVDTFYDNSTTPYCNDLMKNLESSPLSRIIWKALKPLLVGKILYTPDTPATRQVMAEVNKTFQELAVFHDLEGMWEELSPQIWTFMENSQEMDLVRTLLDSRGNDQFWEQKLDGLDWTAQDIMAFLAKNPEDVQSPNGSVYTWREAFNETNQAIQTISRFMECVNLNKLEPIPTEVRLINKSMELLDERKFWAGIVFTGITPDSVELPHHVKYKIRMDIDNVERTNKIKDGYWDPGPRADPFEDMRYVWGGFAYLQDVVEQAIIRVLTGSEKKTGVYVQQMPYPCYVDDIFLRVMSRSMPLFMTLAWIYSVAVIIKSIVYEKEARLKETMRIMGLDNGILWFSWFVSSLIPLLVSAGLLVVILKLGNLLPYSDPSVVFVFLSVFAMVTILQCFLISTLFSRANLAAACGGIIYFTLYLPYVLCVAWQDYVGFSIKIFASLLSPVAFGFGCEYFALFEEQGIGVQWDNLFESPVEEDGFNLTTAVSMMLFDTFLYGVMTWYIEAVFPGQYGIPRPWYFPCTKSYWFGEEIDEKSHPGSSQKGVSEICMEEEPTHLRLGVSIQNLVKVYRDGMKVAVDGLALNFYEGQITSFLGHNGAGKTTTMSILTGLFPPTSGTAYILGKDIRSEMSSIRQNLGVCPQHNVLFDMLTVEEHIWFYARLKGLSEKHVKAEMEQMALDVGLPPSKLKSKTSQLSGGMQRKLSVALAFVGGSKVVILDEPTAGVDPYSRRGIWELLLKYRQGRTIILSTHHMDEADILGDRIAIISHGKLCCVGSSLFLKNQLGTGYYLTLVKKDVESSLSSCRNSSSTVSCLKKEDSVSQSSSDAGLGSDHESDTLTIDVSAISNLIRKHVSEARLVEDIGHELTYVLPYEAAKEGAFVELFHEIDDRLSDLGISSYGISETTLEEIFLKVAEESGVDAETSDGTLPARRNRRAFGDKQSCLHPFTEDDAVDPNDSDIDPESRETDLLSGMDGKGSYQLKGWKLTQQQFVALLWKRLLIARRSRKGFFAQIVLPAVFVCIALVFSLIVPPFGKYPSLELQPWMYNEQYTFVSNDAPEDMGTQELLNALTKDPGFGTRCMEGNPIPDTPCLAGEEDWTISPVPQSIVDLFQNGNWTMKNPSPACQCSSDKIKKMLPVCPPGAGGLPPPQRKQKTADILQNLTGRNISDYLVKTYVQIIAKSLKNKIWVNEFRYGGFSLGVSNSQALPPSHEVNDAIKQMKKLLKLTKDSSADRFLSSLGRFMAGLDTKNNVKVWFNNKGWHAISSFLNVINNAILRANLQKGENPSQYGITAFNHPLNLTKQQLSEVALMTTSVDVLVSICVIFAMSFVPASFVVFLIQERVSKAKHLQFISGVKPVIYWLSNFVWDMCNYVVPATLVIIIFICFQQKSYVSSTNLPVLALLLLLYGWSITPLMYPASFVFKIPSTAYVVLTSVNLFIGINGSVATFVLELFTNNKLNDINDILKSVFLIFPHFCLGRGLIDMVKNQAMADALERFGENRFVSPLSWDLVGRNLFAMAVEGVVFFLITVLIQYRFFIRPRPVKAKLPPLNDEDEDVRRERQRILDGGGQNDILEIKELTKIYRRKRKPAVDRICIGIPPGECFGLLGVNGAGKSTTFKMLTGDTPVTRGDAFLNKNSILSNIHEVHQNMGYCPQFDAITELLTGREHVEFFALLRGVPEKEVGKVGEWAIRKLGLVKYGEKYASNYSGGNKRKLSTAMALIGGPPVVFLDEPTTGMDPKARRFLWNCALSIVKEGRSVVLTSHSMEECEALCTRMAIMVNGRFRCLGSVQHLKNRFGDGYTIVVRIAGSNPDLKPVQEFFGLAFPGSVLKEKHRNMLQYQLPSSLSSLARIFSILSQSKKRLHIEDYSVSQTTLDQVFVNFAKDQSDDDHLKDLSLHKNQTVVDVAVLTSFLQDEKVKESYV
Source text: as §1, §2

CD11b = CD11b expression in stimulated monocytes by flow cytometry; assay type: cell-based, human; conditions: for PMA-induced CD11b expression in human monocytes: 20 μg/ml, PMA 1 μmol/L, FIG. 2
Procedure: Monocyte Isolation Peripheral whole blood (PWB) was drawn from healthy consenting individuals into syringes containing sodium citrate (final concentration—19.2 mM). Resting human monocytes were isolated from PWB by density centrifugation with Lymphoprep (Axis Shield). Mononuclear cells (MNCs) were collected and monocytes were further separated to purity using the Dynal negative isolation kit (Invitrogen). Monocytes were resuspended in phosphate buffered saline (PBS) and cell number was determined counting cell suspension on an automated hematology analyzer (Sysmex, KX-21N, USA).
Flow Cytometry 100 μL of monocytes were stimulated with either 1 μmol/L phorbol-myristate-acetate (PMA) or 1 μg/ml lipopolysaccharide (LPS) (Sigma, Australia) in the presence or absence of apoA-1 (20 μg/ml), or 20 μg/ml of the test peptide SEQ ID NO: 602 (Ac-[…]NH2), each tested separately. The cells were incubated with the FITC conjugated antibody to either the active epitope of CD11b (eBiosciences, USA, Clone CBRM1/5) or total CD11b (Serotec, USA, Clone ICRF44) for 15 min at 37° C. Cells were then fixed with 4% para-formaldehyde. Samples were controlled for by using the appropriately matched isotype matched negative control (FITC-anti-mouse IgG) (Serotec, USA, Clone W3/25). CD11b expression was measured by flow cytometry using FACS Calibur (Becton Dickinson). Analysis was conducted using the Cell Quest Pro software.
Statistical Analysis Values are presented as the mean±SD or percentage of control±SD. FACS results were analyzed for statistical significance using one-way ANOVA followed by Bonferroni post-hoc test. Significance was accepted at P<0.05.
as §2

[1] = system: vascular cell adhesion molecule-1; experiment: Cytokine-induced V-CAM expression in human coronary artery endothelial cells; assay type: cell-based; conditions: initial data; p<0.05
Procedure: as §2

[2] = system: ApoE knockout and LDL receptor knockout mice; experiment: Aortic atherosclerosis in ApoE and LDL receptor knockout mice (Example 14); assay type: in vivo, mouse; conditions: 30 mg/kg ip three times per week, 4-5 or 8-10 weeks
Procedure: The mice receive 3 injections per week for either 4-6 or 8-10 weeks. After the completion of the injection, the amount of hardening of the arteries or atherosclerosis is determined in the control injected animals and peptide injected animals to determine if the injections of the synthetic peptide decreased development of atherosclerosis.
For infusion studies B and C, mice are injected ip with either placebo or a synthetic peptide of the present invention (30 mg/kg) three times per week for either 4 to 5 weeks (Infusion Study B) or 8 to 10 weeks (Infusion Study C). Blood for lipid and lipoprotein analyses is obtained at the beginning of the study (day 0) and every two weeks after placebo/peptide injection and at the completion of the study. At the completion of the study (4 to 5 weeks for Infusion Study B and 8 to 10 weeks for Infusion Study C), the animals are sacrificed, organs harvested for analyses of cholesterol content and for aortic atherosclerosis.
No more than 300 ul blood every two weeks is obtained from each mouse. • 4) At the end of Infusion Study B and C all mice are sacrificed by cervical dislocation following isoflurane anesthesia and organs are harvested for analyses of cholesterol as well as aortic atherosclerosis. Before intraperitoneal injections, brief inhaled analgesia is obtained by isoflurane utilizing the E-Z Rodent Anesthesia System in the procedure room. […]

[3] = system: HeLa cells stably transfected with human ABCA1 cDNA; experiment: Cholesterol and phospholipid efflux from ABCA1 cells; assay type: cell-based
Procedure: HeLa cells stably transfected with human ABCA1 cDNA (ABCA1 cells) and HeLa cells transfected with only a hygromycin-resistant control plasmid (control cells) are produced and grown in α-modified Eagle's medium (aMEM) plus 10% fetal calf serum, as described by Remaley et al. (Biochem. Biophys. Res. Commun. 280:818-823, 2001). […] Thromb. Vasc. Biol. 17:1813-1821, 1997). Percentage efflux is calculated after subtracting the radioactive counts in the blank media (aMEM plus 1 mg/ml of BSA), and expressed as the percent of total radioactive counts removed from the cells during the efflux period.
(§3) ABCA1 cells are used to assess the ability of apoA-I and synthetic peptides to efflux lipid from cells. […] The peptides of the present invention efflux approximately 2- to 4-fold more cholesterol and phospholipid from ABCA1 cells than from control cells. Both the peptides of the present invention and apoA-I began to show saturation for lipid efflux at approximately the same protein concentration of 10 μg/ml. The peptides of the present invention remove more cholesterol and phospholipids from control cells than apoA-I.
Cholesterol efflux from ABCA1 cells to apoA-I is first detectable after 2 hours and increases throughout the 30 hour efflux period. […]

[4] = system: HeLa cells transfected with only a hygromycin-resistant control plasmid; experiment: Cholesterol and phospholipid efflux from control cells; assay type: cell-based, human; conditions: result in words
Procedure: HeLa cells stably transfected with human ABCA1 cDNA (ABCA1 cells) and HeLa cells transfected with only a hygromycin-resistant control plasmid (control cells) are produced and grown in α-modified Eagle's medium (aMEM) plus 10% fetal calf serum, as described by Remaley et al. (Biochem. Biophys. Res. Commun. 280:818-823, 2001). Cholesterol and phospholipid efflux is performed for 18 hours on noncholesterol-loaded cells radiolabeled with either cholesterol or choline (Remaley et al., Arterioscler. Thromb. Vasc. Biol. 17:1813-1821, 1997). Percentage efflux is calculated after subtracting the radioactive counts in the blank media (aMEM plus 1 mg/ml of BSA), and expressed as the percent of total radioactive counts removed from the cells during the efflux period.
as §3, with “apoA-I. […]” for “apoA-I.”

[5] = FU5AH rat hepatoma cells, peptides at 30 μg/ml
[6] = J774 cells, peptides at 30 μg/ml
[7] = J774 cells, peptides at 30 μg/ml, listed as 5
[8] = J774 mouse macrophage cells, peptides at 30 μg/ml
[9] = J774 cells, peptides at 30 μg/ml, listed as 3
[10] = controls: 2% human serum pool, Apo A-I @ 20 μg/ml

| Substance | SR-BI Mediated Efflux % Per 4 h (SR-B1; [5]) [% Per 4 h] | cholesterol efflux from the Fu5AH cells (SRB1 pathway) (SR-B1) | cholesterol efflux via the ABCA-I pathway (ABCA1) | +ABCA1 Cells (ABCA1; [6]) | −ABCA1 Cells (ABCA1; [6]) | ABCA1 Mediated Efflux % Per 4 h (ABCA1; [8]) [% Per 4 h] | dose dependence of cholesterol efflux from cells containing the ABCA1 pathway (FIG. 3) (ABCA1) | efflux of cholesterol from J774 macrophage cells (ABCA1 pathway) (ABCA1) | PMA-induced CD11b expression in human monocytes (CD11b) | aortic atherosclerosis compared to controls [2] | other results |
| --- | --- | --- | --- | --- | --- | --- | --- | --- | --- | --- | --- |
| Ac-Ser Pro Leu Leu Glu Ser Ala Lys Val Ser Ala Leu Ser Ala Leu Glu Glu Ala Thr Lys Lys Lys Leu Ser Pro Leu Leu Glu Ser Phe Lys Val Ser Phe Leu Ser Ala Leu Glu Glu Tyr Thr Lys Lys Leu Asn Thr Gln-NH2 (Ac-SPLLESAKVSALSALEEATKKKLSPLLESFKVSFLSALEEYTKKLNTQ-NH2) [Peptide 1] | 0.15 | negligible or no effect | 15.34%+2.57 | 20.338 ± 0.136 | 1.624 ± 0.126 | 18.71 | dose dependent stimulation | stimulated efflux of cholesterol | decrease | decrease aortic atherosclerosis | SRB-1 pathway activity (cholesterol efflux) (SR-B1; Example 17, Fu5AH cells): no SRB-1 pathway activity; SR-BI Mediated Efflux % Per 4 h (SR-B1; FU5AH rat hepatoma cells, peptides at 30 μg/ml, listed as 5): 0.25 % Per 4 h; +ABCA1 Cells (ABCA1; [7]): 15.718 ± 0.123; −ABCA1 Cells (ABCA1; [7]): 1.215 ± 0.288; ABCA1 Mediated Efflux % Per 4 h (ABCA1; J774 mouse macrophage cells, peptides at 30 μg/ml, listed as 5): 14.50 % Per 4 h; PMA-induced CD11b expression in human monocytes (CD11b; listed as SEQ ID NO: 602): significantly reduced; Inhibition of expression of CD11B on human monocytes (CD11b; Example 17, p=<0.01, comparable to apo A-I): statistically significant; V-CAM-1 mRNA levels in HCAECs [1]: decreases |
| SPLLESAKVSALSALEEATKKKLSPLLESFKVSFLSALEEYTKKLNTQ [Peptide 4] | 0.10 | negligible or no effect | – | 12.420 ± 1.019 | 1.224 ± 0.121 | 11.20 | dose dependent stimulation | stimulated efflux of cholesterol | – | decrease aortic atherosclerosis | – |
| Ser Pro Leu Ser Asp Glu Lcu Arg Gln Arg Lcu Ala Ala Arg Lcu Glu Ala Leu Lys Glu Asn Lys Leu Ser Pro Leu Leu Glu Ser Phe Lys Val Ser Phe Leu Ser Ala Leu Glu Glu Tyr Thr Lys Lys Leu Asn Thr Gln (SPLSDELRQRLAARLEALKENKLSPLLESFKVSFLSALEEYTKKLNTQ) [Peptide 2] | 0.16 | negligible or no effect | – | 14.283 ± 0.545 | 1.205 ± 0.211 | 13.08 | dose dependent stimulation | stimulated efflux of cholesterol | – | – | +ABCA1 Cells (ABCA1; [9]): 13.447 ± 0.549; −ABCA1 Cells (ABCA1; [9]): 1.306 ± 0.261; ABCA1 Mediated Efflux % Per 4 h (ABCA1; J774 mouse macrophage cells, peptides at 30 μg/ml, listed as 3): 12.14 % Per 4 h |
| apolipoprotein A-I [Apo A-I] | – | – | 15.99%+2.07 | – | – | – | – | – | decrease | – | SR-BI Mediated Efflux % Per 4 h (SR-B1; [10]): 0.26 % Per 4 h; +ABCA1 Cells (ABCA1; [10]): 20.682 ± 0.724; ABCA1 Mediated Efflux % Per 4 h (ABCA1; [10]): 18.97 % Per 4 h; −ABCA1 Cells (ABCA1; [10]): 1.713 ± 0.409; PMA-induced CD11b expression in human monocytes (CD11b; listed as ApoA1): significantly reduced; protein concentration at which lipid efflux begins to show saturation [3]: ~10 µg/mL; time at which cholesterol efflux from ABCA1 cells is first detectable ([3]; 30 hour efflux period): 2 h; cholesterol efflux from control cells (time course) [4]: no significant increase above background |
